Patent publication US10973880B2, “Compositions and methods for treating pulmonary hypertension” (Acceleron Pharma Inc., priority 2016, dated 2021)

Assays:
[1] = target: T1, activin B (Homo sapiens, UniProt P09529); test: similar binding assay (Biacore); details: CHO-cell-expressed material
T1 sequence (P09529 293-407): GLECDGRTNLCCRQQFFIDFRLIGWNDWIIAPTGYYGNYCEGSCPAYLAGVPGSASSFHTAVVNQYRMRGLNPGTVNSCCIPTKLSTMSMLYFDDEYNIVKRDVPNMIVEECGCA

[2] = pharmacokinetics in cynomolgus monkeys; type: in vivo, cynomolgus monkey; details: initial administration 10 mg/kg
[3] = pharmacokinetic studies in rats; type: in vivo, rat; details: initial administration 30 mg/kg
Procedure: The ActRIIA-hFc was very stable in pharmacokinetic studies. Rats were dosed with 1 mg/kg, 3 mg/kg, or 10 mg/kg of ActRIIA-hFc protein, and plasma levels of the protein were measured at 24, 48, 72, 144 and 168 hours. In a separate study, rats were dosed at 1 mg/kg, 10 mg/kg, or 30 mg/kg.

[4] = target: T2, BMP6 (Homo sapiens, UniProt P22004); test: Biacore ligand affinity (Example 10); type: binding; details: Smad 1/5/8 ligand
T2 sequence (P22004 375-513): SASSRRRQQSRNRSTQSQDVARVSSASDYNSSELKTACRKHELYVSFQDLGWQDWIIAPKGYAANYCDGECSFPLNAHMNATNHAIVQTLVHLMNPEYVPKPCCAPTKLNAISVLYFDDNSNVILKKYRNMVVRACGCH
Procedure: (§1) The affinity of GDF traps and other ActRIIB-hFc proteins for several ligands was evaluated in vitro with a Biacore™ instrument. Kd values were obtained by steady-state affinity fit due to the very rapid association and dissociation of the complex, which prevented accurate determination of kon and koff.

[5] = target: T3, GDF8 (Homo sapiens, UniProt O14793); test: Biacore ligand affinity (Example 10); type: binding; details: Smad 2/3 signaling ligand
T3 sequence (O14793 267-375): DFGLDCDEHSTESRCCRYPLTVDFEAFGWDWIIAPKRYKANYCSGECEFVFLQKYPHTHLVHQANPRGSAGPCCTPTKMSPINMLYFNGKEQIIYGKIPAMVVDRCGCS
Procedure: as §1

[6] = target: T4, BMP10 (Homo sapiens, UniProt O95393); test: Biacore ligand affinity (Example 10); type: binding; details: Smad 1/5/8 ligand
T4 sequence (O95393 317-424): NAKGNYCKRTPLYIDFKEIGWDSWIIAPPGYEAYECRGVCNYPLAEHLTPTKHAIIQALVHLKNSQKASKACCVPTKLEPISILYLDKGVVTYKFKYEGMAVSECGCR
Procedure: as §1

[7] = target: T5, GDF11 (Homo sapiens, UniProt O95390); details: see U.S. Pat. No. 7,842,663; cited from earlier work
T5 sequence (O95390 299-407): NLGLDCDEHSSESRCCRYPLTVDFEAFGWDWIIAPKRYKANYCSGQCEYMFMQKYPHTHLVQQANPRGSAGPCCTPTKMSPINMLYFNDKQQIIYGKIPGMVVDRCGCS

[8] = test system: activin; details: see U.S. Pat. No. 7,842,663; cited from earlier work
[9] = target: T6, activin A (Homo sapiens, UniProt P08476); test: A-204 reporter gene assay, pGL3(CAGA)12 luciferase; type: cell-based; details: Example 13
T6 sequence (P08476 311-426): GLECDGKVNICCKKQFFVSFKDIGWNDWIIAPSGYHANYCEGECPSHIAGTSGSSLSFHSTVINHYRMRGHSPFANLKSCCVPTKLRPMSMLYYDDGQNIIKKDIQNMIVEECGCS
Source text: An A-204 reporter gene assay was used to evaluate the effects of ActRIIB-Fc proteins and GDF traps on signaling by GDF-11 and activin A. Cell line: human rhabdomyosarcoma (derived from muscle). Reporter vector: pGL3(CAGA)12 (described in Dennler et al, 1998, EMBO 17: 3091-3100). The CAGA12 motif is present in TGF-beta responsive genes (e.g., PAI-1 gene), so this vector is of general use for factors signaling through SMAD2 and 3.
Day 1: Split A-204 cells into 48-well plate.
Day 2: A-204 cells transfected with 10 ug pGL3(CAGA)12 or pGL3(CAGA)12(10 ug)+pRLCMV (1 μg) and Fugene.
Day 3: Add factors (diluted into medium+0.1% BSA). Inhibitors need to be preincubated with factors for 1 hr before adding to cells. Six hrs later, cells were rinsed with PBS and lysed.
This is followed by a luciferase assay.
(§2) In addition, an A-204 Reporter Gene Assay was used to evaluate the effects of ALK4-Fc:ActRIIB-Fc heterodimer and ActRIIB-Fc:ActRIIB-Fc homodimer on signaling by activin A, activin B, GDF11, GDF8, BMP10, and BMP9. Cell line: Human Rhabdomyosarcoma (derived from muscle). Reporter vector: pGL3(CAGA)12 (as described in Dennler et al, 1998, EMBO 17: 3091-3100). The CAGA12 motif is present in TGFβ responsive genes (PAI-1 gene), so this vector is of general use for factors signaling through Smad2 and 3. An exemplary A-204 Reporter Gene Assay is outlined below. • Day 1: Split A-204 cells into 48-well plate. • Day 2: A-204 cells transfected with 10 ug pGL3(CAGA)12 or pGL3(CAGA)12(10 ug)+pRLCMV (1 ug) and Fugene. • Day 3: Add factors (diluted into medium+0.1% BSA). Inhibitors need to be pre-incubated with Factors for about one hr before adding to cells. About six hrs later, cells are rinsed with PBS and then lysed.
(§3) Following the above steps, a Luciferase assay was performed.

[10] = target: T7, BMP9 (Homo sapiens, UniProt Q9UK05); test: Biacore-based binding assay, receptor captured with anti-Fc antibody
T7 sequence (Q9UK05 320-429): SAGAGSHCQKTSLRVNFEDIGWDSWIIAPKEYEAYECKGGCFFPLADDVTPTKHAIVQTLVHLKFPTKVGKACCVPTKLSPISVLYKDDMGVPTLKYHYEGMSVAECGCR
Procedure: (§4) A Biacore™-based binding assay was used to compare ligand binding selectivity of the ALK4-Fc:ActRIIB-Fc heterodimeric complex described above with that of ActRIIB-Fc and ALK4-Fc homodimer complexes. The ALK4-Fc:ActRIIB-Fc heterodimer, ActRIIB-Fc homodimer, and ALK4-Fc homodimer were independently captured onto the system using an anti-Fc antibody. Ligands were injected and allowed to flow over the captured receptor protein. Results are summarized in the table below, in which ligand off-rates (kd) most indicative of effective ligand traps are denoted in bold font.

[11] = target: T6, activin A; test: as above
Procedure: as §4

[12] = target: T2, BMP6; test: as above
Procedure: as §4

[13] = target: T3, GDF8; test: as above
Procedure: as §4

[14] = target: T8, GDF3 (Homo sapiens, UniProt Q9NR23); test: as above
T8 sequence (Q9NR23 251-364): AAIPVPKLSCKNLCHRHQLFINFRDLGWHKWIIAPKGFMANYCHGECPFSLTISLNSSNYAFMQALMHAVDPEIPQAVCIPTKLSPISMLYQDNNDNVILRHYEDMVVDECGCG
Procedure: as §4

[15] = target: T4, BMP10; test: as above
Procedure: as §4

[16] = target: T5, GDF11; test: as above
Procedure: as §4

[17] = target: T1, activin B; test: as above
Procedure: as §4

[18] = target: T3, GDF8; test: A-204 reporter gene assay, pGL3(CAGA)12 luciferase; type: cell-based; parameters: host or cells: exogenous factor added to A-204 cells (human rhabdomyosarcoma); details: Example 13
Source text: (§5) Day 1: Split A-204 cells into 48-well plate. […]
as §2, §3

[19] = target: T5, GDF11; test: A-204 reporter gene assay, pGL3(CAGA)12 luciferase; type: cell-based; details: Example 13
Source text: as §5, §2, §3

[20] = target: T1, activin B; test: A-204 reporter gene assay, pGL3(CAGA)12 luciferase; type: cell-based; parameters: host or cells: exogenous factor added to A-204 cells (human rhabdomyosarcoma); details: Example 13
Source text: as §2, §3

With “ActRIIA-hFc: extracellular domain of human ActRIIa fused to a human Fc domain with a minimal linker (SEQ ID NO: 32); homodimer” the “affinity for activin B ligand compared with that reported for ActRIIa-hFc expressed in human 293 cells” value [1] was “higher affinity”, the “circulating levels of the drug” value [2] was 30 µg/mL and the “circulating levels of the drug after two weeks” value [3] was 30 µg/mL.

With “ActRIIB(L79D 25-131)-hFc: GDF trap with truncated ActRIIB extracellular domain (residues 25-131, L79D) fused to human Fc (SEQ ID NO: 78)” the “binding to BMP6” value [4] was “strong to intermediate binding”, the “binding to GDF8” value [5] was “strong to intermediate binding” and the “binding to BMP10” value [6] was “strong to intermediate binding”.

B1: ActRIIB(20-119)-Fc: ActRIIB-Fc fusion protein containing amino acids 20-119 of SEQ ID NO: 1 (protein)
chain: GRGEAETRECIYYNANWELERTNQSGLERCEGEQDKRLHCYASWRNSSGTIELVKKGCWLDDFNCYDRQECVATEENPQVYFCCCEGNFCNERFTHLPEA
modifications: Fc fusion, Fc no entry
For B1, the “binding to GDF11 relative to ActRIIB(20-134)-Fc” value [7] is given as “reduced binding” and the “binding to activin relative to ActRIIB(20-134)-Fc” value [8] is given as “reduced binding”.

B2: ActRIIB-Fc homodimer: homodimer complex of ActRIIB-Fc fusion polypeptide (protein)
chain: GRGEAETRECIYYNANWELERTNQSGLERCEGEQDKRLHCYASWRNSSGTIELVKKGCWLDDFNCYDRQECVATEENPQVYFCCCEGNFCNERFTHLPEAGGPEVTYEPPPTAPT
modifications: left off: a dimerising Fc or GST
notes: homodimer complex of ActRIIB-Fc fusion polypeptide
For B2, the “inhibition of activin A signaling” value [9] was “potent inhibitors”, the Kd [10] was 0.077 nM and the “ka, BMP9” value [10] was 1.4e+07 M⁻¹ s⁻¹. For the same molecule, the “kd, BMP9” value [10] was 0.0011 s⁻¹, the “ka, Activin A” value [11] was 1.2e+07 M⁻¹ s⁻¹ and the “kd, Activin A” value [11] was 0.00023 s⁻¹. The “ka, BMP6” value [12] was 3.2e+07 M⁻¹ s⁻¹, the “kd, BMP6” value [12] was 0.0068 s⁻¹ and the “ka, GDF8” value [13] was 830000 M⁻¹ s⁻¹. For the same molecule, the “kd, GDF8” value [13] was 0.00023 s⁻¹, the Kd ([13]; † = very low signal) was 0.28 nM and the Kd [14] was 1.5 nM. The “ka, GDF3” value [14] was 1.4e+06 M⁻¹ s⁻¹, the “kd, GDF3” value [14] was 0.0022 s⁻¹ and the Kd [15] was 0.011 nM. For the same molecule, the “ka, BMP10” value [15] was 2.3e+07 M⁻¹ s⁻¹, the “kd, BMP10” value [15] was 0.00026 s⁻¹ and the “ka, GDF11” value [16] was 5e+07 M⁻¹ s⁻¹. For the same molecule, the “kd, GDF11” value [16] was 0.00011 s⁻¹, the Kd ([16]; † = very low signal) was 0.002 nM and the “ka, Activin B” value [17] was 5.1e+06 M⁻¹ s⁻¹. The “kd, Activin B” value [17] was 0.0001 s⁻¹, the “inhibition of GDF8 signaling” value [18] was “potent inhibitors” and the “inhibition of GDF11 signaling” value [19] was “potent inhibitors”. For the same molecule, the “inhibition of activin B signaling” value [20] was “potent inhibitors”.
